Three molecules from patent publication US20120253009A1 can be followed below.

Bridge positions count the residues as written; N and C are the ends. Ends that are not written are not given here.

B1: Fc-Loop-(SEQ ID NO: 10) (Fc fusion, part only; not given: Fc-Loop scaffold and insertion site, part only)
chain, part: CSSGGPTLREWQQCGRAQ
modifications: disulfide 1-14 (inferred); also: inserted into an Fc-Loop, Fc, site and spacers not given here
B2: Fc-Loop-(SEQ ID NO: 8) (Fc fusion, part only; not given: Fc-Loop scaffold and insertion site, part only)
chain, part: CSSGGPTLREWQQCSRAQ
modifications: disulfide 1-14 (inferred); also: inserted into an Fc-Loop, Fc, site and spacers not given here
B3: Fc-Loop-(SEQ ID NO: 9) (Fc fusion, part only; not given: Fc-Loop scaffold and insertion site, part only)
chain, part: CSSGGPTLREWQQCQRAQ
modifications: disulfide 1-14 (inferred); also: inserted into an Fc-Loop, Fc, site and spacers not given here

In the experiment the target is human mpl receptor (human) (UniProt P40238). Description: cell-based or functional assay.
Molecule B1 gave a Pb EC50 of 2.31 ng/mL.
The result for B2 reads 0.28 ng/mL; that for B3, 0.27 ng/mL.
